Like-named read-outs stand apart in the source and are kept apart here.

One assay concerns the target Aβ11-29 (Homo sapiens, UniProt P05067). Nature of the assay: Hydrolysis activity against Aβ11-29. As to conditions: for degradation of Aβ-F (Aβ11-29): Example 15, peptide 0.2 mmol/l.
The target of assay [1] is soluble Aβ1-42 (Aβ42 authentic sample) (Homo sapiens, UniProt P05067). Nature of the assay: Hydrolysis activity against soluble Aβ1-42 (authentic sample).
Description: (§2) As substrates, Aβ42 in the form of soluble powder (authentic sample, Peptide Institute Inc.) and fragment peptides thereof, namely, Aβ1-20, Aβ11-29, and soluble Aβ28-42, were used. […] In the case of MS analysis, the MS analysis was performed after applying 20 μl of the reaction solution to HPLC and collecting an aliquot of the peak.
Aβ42 was used as a substrate. […] In the case of MS analysis, the MS analysis was performed after applying 20 μl of the reaction solution after the reaction for 7 days to HPLC and collecting an aliquot of the peak.
Assay [2] is described as follows: Autodigestion of the catalytic peptide (HPLC, MS). It is filed as biochemical. As for the experimental part:
First, to a buffer solution (Tris-HCl, pH 6.5, final concentration: 100 mmol/l), JAL (final concentration: 0.2 mmol/l) and the fragment peptide of hMMP7 (final concentration 0.05 mmol/l) were added. […] Thereafter, the reaction solution was subjected to HPLC, and the peaks of JAL and the fragment peptide of hMMP7 were examined. HPLC was performed under the following conditions.
Next, the mechanism of autodigestion was examined using various mutants of JAL as hydrolytic peptides. To a reaction solution containing each of the mutants of JAL, a protease inhibitor (trade name: Roche cOmplete, Roche) was added to cause a reaction. One tablet of the protease inhibitor was dissolved in 1 ml of Milli-Q water, and then, 50 μl of the resultant mixture was added to the reaction solution. […] As a result, the autodigestion of all the peptides subjected to the measurement was inhibited (FIG. 16).
Autodigestion in Box B was examined.
JAL-TA9 was reacted in the same manner except that a substrate was not added to examine the autodigestion of JAL-TA9.
The influence of an inhibitor on autodigestion of JAL-TA9 was examined. […] As the protease inhibitor, the serine protease inhibitor AEBSF, which inhibited the autodigestion of JAL 12-22 C19M in the item (6) in Example 4, was used.

Another assay has as its target Aβ28-42 (Homo sapiens, UniProt P05067). Put plainly: Hydrolysis activity against Aβ28-42. The class given is biochemical. As to conditions: reaction solution II; 1 day, 5 days.
The next assay has as its target Aβ1-20 (Homo sapiens, UniProt P05067). Nature of the assay: Hydrolysis activity against Aβ1-20.
In the next assay the target is PrP 175-189 (Homo sapiens, UniProt P04156).
Another assay deals with Aβ1-19 (Homo sapiens, UniProt P05067). Nature of the assay: Hydrolysis activity against Aβ1-19.
Another assay concerns the target SOD1 2-12 (Homo sapiens, UniProt P00441). Nature of the assay: Hydrolysis activity against SOD1 2-12. It is filed as biochemical. As to conditions: Example 3 (1); substrate SOD1 2-38 or SOD1 2-12. The source says:
(§1) In JAL 1-22 C19M and JAL 7-22 C19M, Cys residues contained in JAL form S—S bonds during a reaction, and this makes fragment analysis difficult. On this account, JAL 1-22 and JAL 7-22 were modified so as to substitute Cys residues by Met.

For another assay, the target named is SOD1 2-38 (Homo sapiens, UniProt P00441). Put plainly: Hydrolysis activity against SOD1 2-38. It is filed as biochemical. As to conditions: Example 3 (1); substrate SOD1 2-38 or SOD1 2-12. As for the experimental part: As a control, physiological saline (0.9 w/v %) was used instead of the buffer solution. […] Also, it is considered that physiological saline is suitable for storage of JAL before use, for example.
SOD1 2-38, sequence (P00441 2-38 limits assumed): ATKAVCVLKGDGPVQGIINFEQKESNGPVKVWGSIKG
Next, an experiment was conducted to consider an optimal pH for activity using JAL as the hydrolytic peptide and SOD1 2-38 as a substrate.
Metal ions to be added to a reaction solution were Zn^2+, Ca^2+, Co^2+, or combinations thereof. The concentrations of the metal ions in the respective reaction solutions were as follows: 10 mmol/l for Ca^2+; and 5 μmol/l for the other metal ions.
as §1

The mark [3] stands for this setting: Example 9, chimera 0.2 mmol/l, PBS, HSA.
Setting [4] is: reaction solution II, 1 day, 5 days.
The mark [5] stands for this setting: Example 5 (1), JAL 14-18 and mutants.
[6] abbreviates: Example 15, substrate not added.
The mark [7] stands for this setting: reaction solution VI, reaction for 1 day.
The mark [8] stands for this setting: reaction solution VI, reaction for 5 days.
The mark [9] stands for this setting: Example 14, peptide 0.2 mmol/l, PBS, HSA.

Description for Aβ1-19: The present experiment was conducted to consider an optimal concentration of a hydrolytic peptide relative to a substrate, using JAL 7-22 C19M as the hydrolytic peptide and Aβ1-19 as the substrate. The measurement of activity was performed in the same manner as in the above item (1), except that the incubation time was set to 0 days, 3 days, or 5 days.
Description for Aβ1-20: (§3) Further, any change in activity caused by addition of human serum albumin (HSA, Wako Pure Chemical Industries, Ltd., final concentration 0.025%) also was measured.
as §2
(§4) The present experiment examined activity against Aβ-Fs in Example 7.
(§5) As substrates, the same Aβ1-20 and Aβ11-29 as used in Example 7 were used.
Description for Aβ11-29: as §3, §2
As a substrate, Aβ11-29, which is a fragment peptide of Aβ42, was used. […] In the case of MS analysis, the MS analysis was performed after applying 20 μl of the reaction solution after the reaction for 6 days to HPLC and collecting an aliquot of the peak.
as §4
The reaction solution V shown in FIG. 52 was incubated at 37° C. for a predetermined time, and autodigestion of ANA-YA4 (YRMI) and cleavage of Aβ11-29 were examined.
A reaction solution VI shown in FIG. 52 was incubated at 37° C. for a predetermined time, and cleavage of Aβ1-20 and Aβ11-29 by ANA-SA5 was examined.
as §5
The present example examined autodigestion and activity against Aβ-F of JAL 12-17 (YKGSGF) and JAL 12-16 (YKGSG). […] As a substrate, the same Aβ11-29 as used in Example 7 was used. The autodigestion was examined by causing the reaction in the same manner, except that the substrate was not added.

Consider YKGSGFRMIHA, for which, in the assay with Aβ11-29 (Example 3 (6)), the “hydrolysis activity against Aβ11-29” value is listed as “exhibited activity”.

“FVIFLDVKHFSPEDLTVK-AA-YKGSGFRMI (FVIFLDVKHFSPEDLTVKAAYKGSGFRMI) [chimera peptide]”: the “degradation of Aβ42 (HPLC)” value in assay [1] (setting [3]) is “degraded Aβ4211-29 from Day 1”. In the assay with Aβ11-29 (setting [3]), the “degradation of Aβ11-29 (HPLC)” value is “degraded Aβ11-29”.

In the case of SKGQAYRMI [ANA-TA9], the autodigestion result in [2] (reaction solution I, 37° C.) is “autodigestion of ANA-TA9 was observed”. In assay [2] (reaction solution IV, 6 hours), the “autodigestion in presence of protease inhibitor” value is listed as “inhibited by the protease inhibitor”. Also, the “cleavage of Aβ-Fs” value with Aβ28-42, in the assay with Aβ1-20 (setting [4]) and with Aβ11-29 (setting [4]) was “could cleave all the Aβ-Fs” in each case. Also, in assay [1] (authentic sample Aβ42, reaction solution III), the “cleavage of Aβ42” value is listed as “could cleave Aβ42”.

As to YKGSGFRMI [JAL 12-20 C19M], in assay [2] (AEBSF, with Aβ11-29, 1 day), the “autodigestion in presence of protease inhibitor” value was “inhibited by AEBSF”. For the same substance, the “hydrolysis activity against Aβ11-29” value is “exhibited activity” in the assay with Aβ11-29 (Example 3 (6)) and “strong activity” with Aβ11-29 (Example 4 (5)).

As to DSGFR, the “hydrolysis activity against Aβ1-20” value in the assay with Aβ1-20 (setting [5]) is “strong activity”.

With YKGAGFR, the “hydrolysis activity against Aβ1-20” value in the assay with Aβ1-20 (Example 3 (2), (6)) is recorded as “exhibited activity”.

As to YKGSG [JAL 12-16], the autodigestion entry in [2] (setting [6]) is on record as “digested themselves”. Moreover, the “degradation of Aβ-F (Aβ11-29)” value with Aβ11-29 (PBS, HSA) is given as “degraded Aβ-F”.

Turning to GSGQR, the “hydrolysis activity against Aβ11-29” value in the assay with Aβ11-29 (setting [5]) is reported as “strong activity”.

With YPEKPLKGSGFRCVHI [Tob2 7-22], the “hydrolysis activity against PrP 175-189” value at PrP 175-189 and on PrP 175-189 (Cu2+ further added to HSA) was “exhibited activity” throughout.

In the case of APEKPYKGSGFRMIHA, in the assay with Aβ11-29 (Example 3 (6)), the “hydrolysis activity against Aβ11-29” value is “exhibited activity”.

In the case of EKPYKGSGFRMI, the “hydrolysis activity against Aβ11-29” value with Aβ11-29 (Example 3 (6)) is “exhibited activity”.

For the substance AKGSGFRMI, the “hydrolysis activity against Aβ11-29” value with Aβ11-29 (Example 3 (6)) is “exhibited activity”.

As for GSGVR, the “hydrolysis activity against Aβ1-20” value with Aβ1-20 (setting [5]) is given as “strong activity”.

For the substance YRMI [ANA-SA4], the autodigestion entry in assay [2] (reaction solution V, 37° C.) was “digested itself”. For the same substance, in the assay with Aβ1-20 (reaction solution V, 37° C.), the “cleavage of Aβ1-20” value is given as “degraded Aβ1-20”. Moreover, the Aβ1-20 peak remaining in the assay with Aβ1-20 (setting [7]) is recorded as 49.6%. Besides, in the assay with Aβ1-20 (setting [8]), the Aβ1-20 peak entry was “almost disappeared”. The “cleavage of Aβ11-29” value with Aβ11-29 (reaction solution V, 37° C.) is listed as “degraded Aβ11-29”. Besides, the Aβ11-29 peak remaining with Aβ11-29 (setting [7]) came out at 72%. The Aβ11-29 peak result in the assay with Aβ11-29 (setting [8]) was “almost disappeared”.

Consider WVDPYEVSYRIGE [Box B BTG1 8-20], for which the autodigestion result in assay [2] (Example 6, HSA added, 5 days) is recorded as “fragments suggesting the occurrence of autodigestion were observed”. Besides, in the assay with Aβ11-29 (Example 6 (3)), the “hydrolysis activity against Aβ11-29” value is “exhibited activity”.

GSGHR: the “hydrolysis activity against Aβ11-29” value in the assay with Aβ11-29 (setting [5]) is “strong activity”.

With YPEKPYKGSGFRCIHI [JAL 7-22], the “hydrolysis activity against Aβ1-19” value in the assay with Aβ1-19 (high peptide concentration) is recorded as “lowered”; in the assay with Aβ1-19 (substrate:peptide 1:1 (0.05 mmol/l) and 1:4 (0.2 mmol/l), 3 or 5 days) it was “strong activity”. Also, the “hydrolysis activity of JAL mutants” value with SOD1 2-12 and with SOD1 2-38 was “exhibited hydrolysis activity” throughout.

On to GSGYR, for which the “hydrolysis activity against Aβ1-20” value with Aβ1-20 (setting [5]) is reported as “strong activity”.

YKGSGF [JAL 12-17]: the autodigestion entry in [2] (setting [6]) is “digested themselves”. Also, in the assay with Aβ11-29 (PBS, HSA), the “degradation of Aβ-F (Aβ11-29)” value was “degraded Aβ-F”.

As to KYEGHWYPEKPYKGSGFRMIHI [JAL 1-22 C19M], the “hydrolysis activity against Aβ1-19” value is given as “did not exhibit activity” with Aβ1-19 (CH3OH or CH3CN 10%, 3 or 5 days) and “exhibited activity” with Aβ1-19 (DMSO 10%, 3 or 5 days). Moreover, the “hydrolysis activity of JAL mutants” value with SOD1 2-12 and in the assay with SOD1 2-38 was “exhibited hydrolysis activity” throughout.

On to FPEKPCKGSGYRCIRI [BTG1 7-22], for which the “hydrolysis activity against PrP 175-189” value at PrP 175-189 is “exhibited activity”.

On to YPEKPSKGQAYRCIRV [BTG3 7-22], for which the “hydrolysis activity against PrP 175-189” value at PrP 175-189 and at PrP 175-189 (Cu2+ further added to HSA) was “exhibited activity” throughout.

For the substance SKGQA [ANA-SA5], in the assay with Aβ1-20 (reaction for 5 days), the “types of fragments of Aβ1-20 detected” value came out at 12. Further, in the assay with Aβ11-29 (reaction for 5 days), the “types of fragments of Aβ11-29 detected” value is on record as 13.

For the substance HSDCPSKGQAFRCIRI [BTG4 7-22], the “hydrolysis activity against PrP 175-189” value at PrP 175-189 was “exhibited activity”.

Regarding WIDPFEVSYQIGE [Box B Tob1 8-20], the autodigestion result in [2] (Example 6, HSA added, 5 days) is recorded as “fragments suggesting the occurrence of autodigestion were observed”. Also, the “cleavage sites in Aβ-Fs (MS)” value with Aβ1-20 (Example 14) and with Aβ11-29 (Example 14) was “cleaved at a plurality of sites” in each case. The “degradation of Aβ-Fs (HPLC)” value with Aβ1-20 (setting [9]) and with Aβ11-29 (setting [9]) was “degraded Aβ-Fs” each time.

As to GSGFR, the “hydrolysis activity against Aβ1-20” value is recorded as “exhibited activity” in the assay with Aβ1-20 (Example 3 (2), (6)) and “strong activity” with Aβ1-20 (setting [5]).

In the case of AISSSMHSLYGLGLGS [Tob1 221-236], the autodigestion result in [2] (Example 6, HSA added, 5 days) is recorded as “fragments suggesting autodigestion of Tob1 221-236 were observed”. In addition, in the assay with Aβ11-29 (Example 6 (3)), the “hydrolysis activity against Aβ11-29” value is reported as “exhibited activity”.

For the substance YKGSGFR [JAL (Tob1) 12-18], the “hydrolysis activity against Aβ1-20” value with Aβ1-20 (Example 3 (2), (6)) is recorded as “exhibited activity”.
